Data from patent US20130315920A1, “Cross Protective Epitopes of Aspergillus Fumigatus and Candida Albicans” (Cell Medica Limited, priority 2010, published 2013).

Assays:
[1] = target: PE-conjugated Crf1 p41-specific HLA-DRB1*0401 MHC class II tetramer (Aspergillus fumigatus; human); assay: flow cytometry, tetramer staining of T-cell lines expanded for 14 days
HLA-DRB1*03, 04 and 13 = assay: Minimal epitope analysis with 11-mer peptides; format: cell-based, human; conditions: data not shown
From the text: To evaluate the utility of the Crf1 p41 epitope for potential clinical application, we defined the HLA restriction of Crf1 p41-specific CD4^+ T clones from different donors by stimulation with peptide-pulsed partially matched LCLs. […] As presentation of the Crf1 p41 peptide could also be mediated by other MHC class II alleles, we verified the HLA restriction by stimulation of PBMC from additional donors.
A peptide library covering the complete Crf1 sequence consisting of 94 15-mer peptides overlapping by […] (aa) was divided into sub-pools of 10 peptides and 94 single peptides (p1-p94) (PANATecs). 3 11-mer peptides of p40/41 overlapping by 2aa ([…], […], HTYTIDWTKDA) were obtained from JPT Peptide Technologies.

[2] = target: recombinant A. fumigatus Crf1 protein with FLAG-Tag (Aspergillus fumigatus)
[3] = target: recombinant A. fumigatus secreted protein peptidase (Aspergillus fumigatus)
[4] = test system: T-cell lines from PBMC of healthy donors; assay: IFN-γ ELISA of T-cell lines stimulated with recombinant A. fumigatus proteins; format: cell-based, human; conditions: 5 μg/ml protein
From the text: As the identification of potential protective fungal antigens is rather intricate due to the extensiveness of fungal genomes, we analyzed 6 different A. fumigatus recombinant proteins based on their previously reported immunogeneic reactivity in mice and humans^7,10. […] By contrast, GPI-anchored extracellular cell wall glucanase Crf1 and secreted protein peptidase induced high IFN-γ in 6 of 7 and 5 of 10 tested donors, respectively. The response was mediated by CD4^+ TH1 cells, as MHC class II blocking antibody nearly abrogated IFN-γ release (data not shown). Due to the broad response and the sequence similarity to the C. albicans orthologue Crh1, we focused in subsequent experiments on the protein Crf1. By epitope mapping of 7 healthy individuals with different MHC class II alleles, we identified 10 potential candidate epitopes (Table 1). Based on the results obtained by epitope mapping, the probability of antigen presentation by certain MHC class II alleles assessed by epitope prediction^11, previously reported immunogeneic reactivity^12 and sequence similarity to the C. albicans homologue Crh1, we then generated CD4^+ TH1 T-cell clones specific for the peptides p1, p22, p27, p41, p48, p59, p69 and p84 (FIG. 1a and Table 1).
A. fumigatus superoxide dismutase^34, catalase^35, peptidase^36 and 1,3-beta-glucanosyl-transferase Gel1^30 were produced in the yeast Pichia pastoris as described^37. Extracellular cell wall glucanase Crf1^37 (cDNA provided by Utz Reichard) and the major allergen and cytotoxin AspF1^10 were expressed with FLAG-Tags in the human cell line phoenix GALV^38.
For analysis of recombinant proteins and epitope mapping, T-cell lines were generated by incubation of 1×10^7 PBMC per well in 6-well cell culture plates with 5 μg/ml protein or peptide for 7d in the presence of 5 U/ml IL-2 (Proleukin, Chiron). Antigen specificity was analyzed by IFN-γ ELISA^42 after restimulation with autologous monocytes incubated overnight with 5 μg/ml protein in a responder to stimulator (R:S) ratio of 5:1. Epitope mapping was performed by IFN-γ ELISPOT^39 after stimulation with peptide-pulsed autologous DC at a R:S ratio of 10:1.

C. albicans = assay: Vaccination of mice before intragastric C. albicans infection; format: in vivo, BALB/c mice
Method: A. fumigatus Crf1 protein mediates cross-protection to C. albicans. Mice were injected intranasally with resting A. fumigatus conidia 14 days before infection, or with purified Crf1 protein and murine CpG oligodeoxynucleotide 1862 14, 7 and 3 days before intragastric infection with C. albicans. Note (a) the reduced inflammatory cell recruitment and acanthosis in mice vaccinated with A. fumigatus conidia or Crf1 protein as opposed to control mice shown in FIG. 5a and c and (b) the increase in protective TH1 and regulatory T-cell transcription factors and cytokine levels. Shown are fungal growth (CFU/organ, mean±SE), stomach histology and transcription factor and cytokine mRNA expression in CD4^+ T-cells from mesenteric lymph nodes a week after infection with C. albicans. Shown are results pooled from 2 experiments (6 animals/group). Bars indicate SE. P, vaccinated animals versus control. (c) Proliferation of purified CD4^+ spleen cells from untreated mice or animals vaccinated with A. fumigatus or C. albicans in response to control DC, anti-CD3E antibody, heat-inactivated A. fumigatus or C. albicans or A. fumigatus Crf1 p41 and p22 peptide. The results are expressed as mean cpm±SEM of triplicate cultures. P, stimulated versus control DC.
Mice were infected with 2×10^7 resting A. fumigatus conidia intranasally^7,45 and with 10^8C. albicans intragastrically^13. For co-infection, mice were infected a week before the subsequent infection. In the vaccination model, mice were injected intranasally with 2×10^7 Aspergillus resting conidia/20 μl saline once, 14d before infection, or with 5 μg purified Crf1p antigen^7 and 10 nM murine CpG oligodeoxynucleotide 1862, administered 14 d, 7 d and 3 d before intragastric C. albicans infection^7. Mice were monitored for survival (MST, days) and fungal growth (CFU/organ expressed as mean±SE). Mice dying of fungal challenge routinely underwent necropsy for histopathological confirmation of infection^7. […]

Crf1 p41-specific CD4^+ T-cell lines expanded for 14 days (cells without a defined receptor)
frequency of antigen-specific cells as determined by tetramer (median) [1]: 50.6%

HTYTIDWTKDA (peptide of A. fumigatus Crf1)
Minimal epitope (HLA-DRB1*03, 04 and 13): is the minimal epitope of Crf1 p41 for all 3 HLA alleles

T-cell lines from PBMC of healthy donors, raised with the respective recombinant A. fumigatus protein (cells without a defined receptor)
IFN-γ (ELISA) (of 7 tested donors) [2]: 6
IFN-γ (ELISA) (of 10 tested donors) [3]: 5

B1: Crf1: recombinant A. fumigatus GPI-anchored extracellular cell wall glucanase Crf1; given with CpG oligodeoxynucleotide 1862 in mice (protein)
chain: QTWSKCNPLEKTCPPNKGLAASTYTADFTSASALDQWEVTAGKVPVGPQGAEFTVAKQGDAPTIDTDFYFFFGKAEVVMKAAPGTGVVSSIVLESDDLDEVDWEVLGGDTTQVQTNYFGKGDTTTYDRGTYVPVATPQETFHTYTIDWTKDAVTWSIDGAVVRTLTYNDAKGGTRFPQTPMRLRLGSWAGGDPSNPKGTIEWAGGLTDYSAGPYTMYVKSVRIENANPAESYTYSDNSGSWQSIKFDGSVDISSSSSVTSSTTSTASSASSTSSKTPSTSTLATSTKATPTPSGTSSGSNSSSSAEPTTTGGTGSSNTGSGSGSGSGSGSSSSTGSSTSAGASATPELSQG
donors with high IFN-γ of tested donors [4]: 6 of 7
Tbet/Foxp3 CD4+ T-cells and cytokines in mesenteric lymph nodes (C. albicans; a week after infection with C. albicans): activation of Tbet^+/Foxp3^+ CD4^+T-cells and their respective cytokines, IFN-γ and IL-10, in mesenteric lymph nodes
Protection against lethal infection (C. albicans; vaccinated mice): protected against lethal infection with C. albicans
Fungal burden and inflammatory pathology in the stomach (C. albicans; vaccination intranasally before intragastric C. albicans infection, Crf1 protein with CpG as adjuvant): both vaccination strategies reduced the fungal burden and inflammatory pathology in the stomach of mice with candidiasis
